Values quoted from earlier work, collected in PMC3393814.

Molecular target: Nrf2 14mer peptide (Homo sapiens)
Experiment: ITC

Keap1 (from UniProt Q14145)
Kd: 20 nM
